Laboratory results published in US20140087995A1 (published 2014).
Numbered stars: 1 amine (or outer) side, 2 acyl side, 3 side chain; on linkers, the order of the positions; unused ones are H or OH. Bridge positions count the residues as written; N and C are the ends. Square brackets hold non-standard residues; d marks the D form. Side chains are listed from the residue outwards. Ends that are not written are not given here. * marks the point of attachment. C20 diacid = O=C(O)CCCCCCCCCCCCCCCCCCC(=O)*; γGlu = O=C(O)[C@H](CCC(=O)[*:2])N[*:1]

T1: human calcitonin receptor (human, UniProt P30988 25-474)
T1 construct: whole, on cells; Membranes in a scintillation proximity assay (Assay VII); also called hCTR; hCT
T1 sequence (looked up): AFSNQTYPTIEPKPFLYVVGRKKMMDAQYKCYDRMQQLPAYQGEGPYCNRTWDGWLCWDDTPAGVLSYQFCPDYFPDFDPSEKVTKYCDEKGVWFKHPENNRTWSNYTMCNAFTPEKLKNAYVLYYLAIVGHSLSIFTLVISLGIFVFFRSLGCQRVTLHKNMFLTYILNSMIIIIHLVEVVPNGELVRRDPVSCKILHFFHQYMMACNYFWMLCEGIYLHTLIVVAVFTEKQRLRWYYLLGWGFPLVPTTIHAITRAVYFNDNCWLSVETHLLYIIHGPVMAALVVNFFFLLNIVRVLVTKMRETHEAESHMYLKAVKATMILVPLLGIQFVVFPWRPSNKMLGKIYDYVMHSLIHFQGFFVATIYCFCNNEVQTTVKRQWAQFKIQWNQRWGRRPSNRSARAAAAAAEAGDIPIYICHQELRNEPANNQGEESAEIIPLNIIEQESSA

T2: human calcitonin receptor (human, UniProt P30988 25-474)
T2 sequence (looked up): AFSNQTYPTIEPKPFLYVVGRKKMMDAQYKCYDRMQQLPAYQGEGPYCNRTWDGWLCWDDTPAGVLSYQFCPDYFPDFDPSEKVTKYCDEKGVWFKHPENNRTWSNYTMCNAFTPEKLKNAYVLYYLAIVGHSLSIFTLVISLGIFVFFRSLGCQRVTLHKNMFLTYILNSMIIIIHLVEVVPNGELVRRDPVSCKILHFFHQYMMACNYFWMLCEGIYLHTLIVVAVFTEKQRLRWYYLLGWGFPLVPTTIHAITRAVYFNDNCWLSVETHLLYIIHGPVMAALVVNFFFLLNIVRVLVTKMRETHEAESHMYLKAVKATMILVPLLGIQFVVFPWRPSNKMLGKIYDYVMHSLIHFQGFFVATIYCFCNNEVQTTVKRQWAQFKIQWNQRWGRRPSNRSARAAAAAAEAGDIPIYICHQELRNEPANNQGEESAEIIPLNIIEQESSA

T3: human amylin receptor (amylin 3(a) receptor: human calcitonin receptor with RAMP-3) (human, UniProt P30988 25-474; O60896 24-148)
T3 sequence (looked up) 1: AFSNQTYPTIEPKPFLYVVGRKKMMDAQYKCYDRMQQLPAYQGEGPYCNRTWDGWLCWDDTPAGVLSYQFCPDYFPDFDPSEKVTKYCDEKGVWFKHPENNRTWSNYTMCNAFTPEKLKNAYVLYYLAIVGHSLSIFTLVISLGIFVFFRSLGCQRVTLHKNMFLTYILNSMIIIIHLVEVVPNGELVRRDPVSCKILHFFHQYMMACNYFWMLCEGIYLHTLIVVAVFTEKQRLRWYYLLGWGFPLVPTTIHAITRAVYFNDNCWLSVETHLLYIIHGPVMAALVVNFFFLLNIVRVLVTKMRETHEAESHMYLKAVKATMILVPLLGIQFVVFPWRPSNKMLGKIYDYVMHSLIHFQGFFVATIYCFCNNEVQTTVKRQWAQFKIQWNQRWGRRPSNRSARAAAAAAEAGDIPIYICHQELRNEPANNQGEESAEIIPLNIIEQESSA
T3 sequence (looked up) 2: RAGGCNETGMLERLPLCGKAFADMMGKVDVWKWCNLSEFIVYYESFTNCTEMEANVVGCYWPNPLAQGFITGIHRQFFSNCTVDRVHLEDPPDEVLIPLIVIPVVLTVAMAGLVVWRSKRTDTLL


Assays:
[1] = target: T1, human calcitonin receptor; assay: SPA competition binding, displacement of 125I-calcitonin from membranes with human calcitonin receptor (Assay VII)
Method: Membranes were prepared in the following way; the cells were rinsed with PBS and incubated with Versene for approximately 5 min before harvesting. The cells were flushed with PBS and the cell-suspension was centrifuged for 5 min at 1000 rpm. Cells were homogenized (Ultrathurrax) in a buffer containing 20 mM Na-HEPES and 10 mM EDTA (pH 7.4) and centrifuged at 20.000 rpm for 15 min. The resulting pellet was resuspended, homogenized and centrifuged (20.000 rpm, 15 min) in a buffer containing 20 mM Na-HEPES and 0.1 mM EDTA (pH 7.4, buffer 2). The resulting pellet was resuspended in buffer 2 and protein concentration was measured (BCA protein Assay, Pierce). The homogenate was kept cold during the whole procedure. The membranes were kept at −80° C. until use. Assay was performed in a 384 well Optiplate (PerkinElmer) in a total volume of 40 ul. Membranes were mixed with SPA beads. Final concentration of membranes 35 ng/μL final and Final concentration of SPA beads was 0.05 mg/well. Test-compounds were dissolved in DMSO and further diluted in assay buffer (50 mM Hepes, pH 7.4, 1 mM CaCl2, 5 mM MgCl₂, 0.1% OA and 0.02% Tween20). […] The final mixture was incubated for 120 min with shaking at 400 rpm at 25° C. prior to centrifugation (1500 rpm, 10 min). Samples were analyzed on TopCounter™ (Packard). The […] was calculated using (one site binding competition analysis) GraphPad Prism5 as a measure of receptor affinity.

[2] = target: T2, human calcitonin receptor; assay: cell-based or functional assay
[3] = target: T3, human amylin receptor (amylin 3(a) …); assay: cell-based or functional assay
[4] = target: T3, human amylin receptor (amylin 3(a) …); assay: SPA competition, displacement of 125I-rat amylin from membranes of BHK cells with the human amylin 3(a) receptor
Method: The binding assay was performed using scintillation proximity assay (SPA) beads (RPNQ0001) from PerkinElmer and cell membranes from the Amylin 3(a)/CRE-luc cells (as described in Assay (II)) were used. Membranes were prepared in the following way; the cells were rinsed with PBS and incubated with Versene for approximately 5 min before harvesting. The cells were flushed with PBS and the cell-suspension was centrifuged for 5 min at 1000 rpm. Cells were homogenized (ultrathurrax) in a buffer containing 20 mM Na-HEPES and 10 mM EDTA (pH 7.4) and centrifuged at 20.000 rpm for 15 min. The resulting pellet was resuspended, homogenized and centrifuged (20.000 rpm, 15 min) in a buffer containing 20 mM Na-HEPES and 0.1 mM EDTA (pH 7.4, buffer 2). The resulting pellet was resuspended in buffer 2 and protein concentration was measured (BCA protein Assay, Pierce). The homogenate was kept cold during the whole procedure. The membranes were kept at −80° C. until use. The assay was performed in a 384 well Optiplate (PerkinElmer) in a total volume of 40 ul. Membranes were mixed with SPA beads. Final concentration of membranes 35 ng/μL final and SPA beads was 0.05 mg/well. Test-compounds were dissolved in DMSO and further diluted in assay buffer (50 mM Hepes, pH 7.4, 1 mM CaCl2, 5 mM MgCl₂, 0.1% OA and 0.02% Tween20). […] The final mixture was incubated with shaking at 400 rpm for 120 min at 25° C. prior to centrifugation (1500 rpm, 10 min). Samples were analyzed on TopCounter™ (Packard). The IC₅₀ was calculated using (one site binding competition analysis) GraphPad Prism5 as a measure of receptor affinity.

IC50 [1] [nM]	Ratio hCT/hAmylin funct. [2]	hCTR funct. EC50 [2] [nM]	hAmylin-R funct. EC50 [3] [nM]	IC50 [4] [nM]	Binder
112	–	–	–	–	K([γGlu-γGlu-C20 diacid])CNTATCATQRLA[dD]FLRHSSPNFGAIPSSTNVGSRTY-NH2 (disulfide 2-7 (inferred))
–	1.2	0.07	0.06	0.321	{C20 diacid-γGlu}-KCNTATCATQRLAEFLRHSSPNFGPILPPTNVGSNTP-NH2 (disulfide 2-7; SMILES CC[C@H](C)[C@H](NC(=O)[C@@H]1CCCN1C(=O)CNC(=O)[C@H](Cc1ccccc1)NC(=O)[C@H](CC(N)=O)NC(=O)[C@@H]1CCCN1C(=O)[C@H](CO)NC(=O)[C@H](CO)NC(=O)[C@H](Cc1c[nH]cn1)NC(=O)[C@H](CCCNC(=N)N)NC(=O)[C@H](CC(C)C)NC(=O)[C@H](Cc1ccccc1)NC(=O)[C@H](CCC(=O)O)NC(=O)[C@H](C)NC(=O)[C@H](CC(C)C)NC(=O)[C@H](CCCNC(=N)N)NC(=O)[C@H](CCC(N)=O)NC(=O)[C@@H](NC(=O)[C@H](C)NC(=O)[C@@H]1CSSC[C@H](NC(=O)[C@H](CCCCN)NC(=O)CC[C@H](NC(=O)CCCCCCCCCCCCCCCCCCC(=O)O)C(=O)O)C(=O)N[C@@H](CC(N)=O)C(=O)N[C@@H]([C@@H](C)O)C(=O)N[C@@H](C)C(=O)N[C@@H]([C@@H](C)O)C(=O)N1)[C@@H](C)O)C(=O)N[C@@H](CC(C)C)C(=O)N1CCC[C@H]1C(=O)N1CCC[C@H]1C(=O)N[C@H](C(=O)N[C@@H](CC(N)=O)C(=O)N[C@H](C(=O)NCC(=O)N[C@@H](CO)C(=O)N[C@@H](CC(N)=O)C(=O)N[C@H](C(=O)N1CCC[C@H]1C(N)=O)[C@@H](C)O)C(C)C)[C@@H](C)O, also called compound 4)
–	1	0.16	0.162	0.374	{C20 diacid-γGlu}-KCNTATCATQRLAEFLRHSSPNFGAPLSSTNVGSNTP-NH2 (disulfide 2-7; SMILES CC(C)C[C@H](NC(=O)[C@H](CCCNC(=N)N)NC(=O)[C@H](CCC(N)=O)NC(=O)[C@@H](NC(=O)[C@H](C)NC(=O)[C@@H]1CSSC[C@H](NC(=O)[C@H](CCCCN)NC(=O)CC[C@H](NC(=O)CCCCCCCCCCCCCCCCCCC(=O)O)C(=O)O)C(=O)N[C@@H](CC(N)=O)C(=O)N[C@@H]([C@@H](C)O)C(=O)N[C@@H](C)C(=O)N[C@@H]([C@@H](C)O)C(=O)N1)[C@@H](C)O)C(=O)N[C@@H](C)C(=O)N[C@@H](CCC(=O)O)C(=O)N[C@@H](Cc1ccccc1)C(=O)N[C@@H](CC(C)C)C(=O)N[C@@H](CCCNC(=N)N)C(=O)N[C@@H](Cc1c[nH]cn1)C(=O)N[C@@H](CO)C(=O)N[C@@H](CO)C(=O)N1CCC[C@H]1C(=O)N[C@@H](CC(N)=O)C(=O)N[C@@H](Cc1ccccc1)C(=O)NCC(=O)N[C@@H](C)C(=O)N1CCC[C@H]1C(=O)N[C@@H](CC(C)C)C(=O)N[C@@H](CO)C(=O)N[C@@H](CO)C(=O)N[C@H](C(=O)N[C@@H](CC(N)=O)C(=O)N[C@H](C(=O)NCC(=O)N[C@@H](CO)C(=O)N[C@@H](CC(N)=O)C(=O)N[C@H](C(=O)N1CCC[C@H]1C(N)=O)[C@@H](C)O)C(C)C)[C@@H](C)O, also called compound 5)
–	4.5	1.16	0.255	0.674	{C20 diacid-γGlu}-KCNTATCATQRLAEFLRHSSPNFGAPLSSTNVGSNTY-NH2 (disulfide 2-7; SMILES CC(C)C[C@H](NC(=O)[C@H](CCCNC(=N)N)NC(=O)[C@H](CCC(N)=O)NC(=O)[C@@H](NC(=O)[C@H](C)NC(=O)[C@@H]1CSSC[C@H](NC(=O)[C@H](CCCCN)NC(=O)CC[C@H](NC(=O)CCCCCCCCCCCCCCCCCCC(=O)O)C(=O)O)C(=O)N[C@@H](CC(N)=O)C(=O)N[C@@H]([C@@H](C)O)C(=O)N[C@@H](C)C(=O)N[C@@H]([C@@H](C)O)C(=O)N1)[C@@H](C)O)C(=O)N[C@@H](C)C(=O)N[C@@H](CCC(=O)O)C(=O)N[C@@H](Cc1ccccc1)C(=O)N[C@@H](CC(C)C)C(=O)N[C@@H](CCCNC(=N)N)C(=O)N[C@@H](Cc1c[nH]cn1)C(=O)N[C@@H](CO)C(=O)N[C@@H](CO)C(=O)N1CCC[C@H]1C(=O)N[C@@H](CC(N)=O)C(=O)N[C@@H](Cc1ccccc1)C(=O)NCC(=O)N[C@@H](C)C(=O)N1CCC[C@H]1C(=O)N[C@@H](CC(C)C)C(=O)N[C@@H](CO)C(=O)N[C@@H](CO)C(=O)N[C@H](C(=O)N[C@@H](CC(N)=O)C(=O)N[C@H](C(=O)NCC(=O)N[C@@H](CO)C(=O)N[C@@H](CC(N)=O)C(=O)N[C@H](C(=O)N[C@@H](Cc1ccc(O)cc1)C(N)=O)[C@@H](C)O)C(C)C)[C@@H](C)O, also called compound 7) [N^α1-[(4S)-4-carboxy-4-(19-carboxynonadecanoylamino)butanoyl]-[Glu14,Arg17,Pro21,Pro26]-h-amylin]
–	2.2	0.528	0.243	0.915	{C20 diacid-γGlu}-KCNTATCATQRLAEFLRHSSPNFGAILPSTNVGSETY-NH2 (disulfide 2-7, also called compound 33)
–	5.7	0.729	0.128	0.996	{C20 diacid-γGlu}-KCNTATCATQRLAEFLRHSSPNFGPILPPTNVGSNTY-NH2 (disulfide 2-7; SMILES CC[C@H](C)[C@H](NC(=O)[C@@H]1CCCN1C(=O)CNC(=O)[C@H](Cc1ccccc1)NC(=O)[C@H](CC(N)=O)NC(=O)[C@@H]1CCCN1C(=O)[C@H](CO)NC(=O)[C@H](CO)NC(=O)[C@H](Cc1c[nH]cn1)NC(=O)[C@H](CCCNC(=N)N)NC(=O)[C@H](CC(C)C)NC(=O)[C@H](Cc1ccccc1)NC(=O)[C@H](CCC(=O)O)NC(=O)[C@H](C)NC(=O)[C@H](CC(C)C)NC(=O)[C@H](CCCNC(=N)N)NC(=O)[C@H](CCC(N)=O)NC(=O)[C@@H](NC(=O)[C@H](C)NC(=O)[C@@H]1CSSC[C@H](NC(=O)[C@H](CCCCN)NC(=O)CC[C@H](NC(=O)CCCCCCCCCCCCCCCCCCC(=O)O)C(=O)O)C(=O)N[C@@H](CC(N)=O)C(=O)N[C@@H]([C@@H](C)O)C(=O)N[C@@H](C)C(=O)N[C@@H]([C@@H](C)O)C(=O)N1)[C@@H](C)O)C(=O)N[C@@H](CC(C)C)C(=O)N1CCC[C@H]1C(=O)N1CCC[C@H]1C(=O)N[C@H](C(=O)N[C@@H](CC(N)=O)C(=O)N[C@H](C(=O)NCC(=O)N[C@@H](CO)C(=O)N[C@@H](CC(N)=O)C(=O)N[C@H](C(=O)N[C@@H](Cc1ccc(O)cc1)C(N)=O)[C@@H](C)O)C(C)C)[C@@H](C)O, also called compound 6)
